Results published in patent US12129308 (Merck KGaA, dated 2024).
Read-outs that look alike come from different tables or passages of the source.

Key:
[1] = biological target: T1, activated human MMP13 (human, UniProt P45452 104-471); assay: cell-based or functional assay
[2] = biological target: T2, activated rat MMP13 (rat, UniProt P23097 99-466); assay: cell-based or functional assay
[3] = biological target: T1, activated human MMP13; assay: cell-based or functional assay; remark: listed apart in the source
[4] = biological target: T3, Aggrecan; assay: competition ELISA (CAP) on Aggrecan; competitor not stated
T3 construct: also called CAP

[5] = biological target: T1, activated human MMP13; assay: cell-based or functional assay; remark: listed apart in the source
[6] = biological target: T2, activated rat MMP13; assay: cell-based or functional assay; remark: listed apart in the source
[7] = biological target: activated dog MMP13 (dog, UniProt P45452 104-471 (human entry)); assay: cell-based or functional assay
[8] = biological target: bovine MMP13 (bovine, UniProt O77656 104-471); assay: cell-based or functional assay
[9] = biological target: cynomolgus MMP13 (cynomolgus, UniProt A0A2K5U988 104-471); assay: cell-based or functional assay
[10] = biological target: T4, activated MMP13 (species not stated) (Homo sapiens (Human), UniProt P45452 104-471, Biotinylated in the TIMP-2 competition ELISA (sites not given). Activated form: pro-peptide removed.); assay: TIMP-2 competition ELISA; Nanobody pre-incubated with 1.26 nM activated MMP13-biotin, binding to captured TIMP-2
T4 construct: campaign 4 ELISA; Probably human

| Binder | IC50, human fluorogenic collagen assay [1] | IC50, (adapted) rat fluorogenic peptide assay [2] | potency, human fluorogenic peptide assay [3] | IC50 [4] | IC50, human fluorogenic collagen assay [5] | IC50, human fluorogenic peptide assay [5] | IC50, rat fluorogenic peptide assay [6] | IC50, dog fluorogenic peptide assay [7] | IC50, bovine fluorogenic peptide assay [8] | IC50, cyno fluorogenic peptide assay [9] | IC50 [10] | IC50, human collagenolytic assay [5] |
| --- | --- | --- | --- | --- | --- | --- | --- | --- | --- | --- | --- | --- |
| C0101PMP516G08 (VHH, Profile 2 Nanobody; also called C0101516G08) VHH: DVQLVESGGGLVQPGGSLRLSCAGSGSIFRINVMAWYRQAPGKQRELVAAITSGGTTNYADSVKGRFTISRDNSKNTVYLQMNSLRPEDTAVYYCYADIGWPYVLDYDFWGQGTLVTVSS | 3.78 nM | 4.98 nM |  |  | 3.8 nM | 0.8 nM | 5.2 nM | 4.4 nM | 1.5 nM | 0.4 nM | 0.5 nM | 0.9 nM |
| C0101PMP519E04 (VHH, Profile 2 Nanobody) VHH: DVQLVESGGGLVQPGGSLRLSCVASGPTFSDYAMGWFRQAPGKEREFVAAISWSGGSTYYADSVKGRFTISRDNSKNTVYLQMNSLRPEDTAVYYCTAARGGGYRASGGPLSEYNYWGQGTLVTVSS |  |  |  |  | 24.8 nM | 9.5 nM | 3 nM | 7 nM | 17.1 nM | 7.2 nM | 5.5 nM |  |
| 40E09-516G08 clone 70 (bispecific antibody) EVQLVESGGGSVQAGGSLRLSCAASGSTFSRYSMNWYRQAPGKQREFVAGISVGRITNYAVSVRGRFTISRDNAEGTGYLQMNSLKPEDTAVYYCNAGGLQGYWGLGTLVTVSSGGGGSGGGGSGGGGSGGGGSGGGGSGGGGSGGGGSEVQLVESGGGLVQPGGSLRLSCAGSGSIFRINVMAWYRQAPGKQRELVAAITSGGTTNYADSVKGRFTISRDNSKNTVYLQMNSLRPEDTAVYYCYADIGWPYVLDYDFWGQGTLVTVSS | 2.9 nM | 0.12 nM |  |  |  |  |  |  |  |  |  |  |
| 40E09-517A01 clone 71 (bispecific antibody) EVQLVESGGGSVQAGGSLRLSCAASGSTFSRYSMNWYRQAPGKQREFVAGISVGRITNYAVSVRGRFTISRDNAEGTGYLQMNSLKPEDTAVYYCNAGGLQGYWGLGTLVTVSSGGGGSGGGGSGGGGSGGGGSGGGGSGGGGSGGGGSEVQLVESGGGLVQPGGSLRLSCAASGRTFSSYAMGWFRQAPGKEREFVAAISWSGGSTYYADSVKGRFTISRDNSKNTVYLQMNSLRPEDTAVYYCTAALAVYGPNRYRYGPVGEYNYWGQGTLVTVSS | 6.5 nM | 0.11 nM |  |  |  |  |  |  |  |  |  |  |
| C0101PMP063F01 (VHH, Profile 2 Nanobody) VHH: EVQLVESGGGLVQPGGSLRLSCSASTGIFRINTMGWHRQAPGKQRDLVATFTSDDNTKYADSVKGRFTISRDNAENTVYLQMNDLKPEDTAVYYCHATTVMYDSNSPDYWGQGTQVTVSS |  |  |  |  | 134 nM | 82.4 nM | 20.2 nM | 73.9 nM | 191 nM | 108 nM | 177 nM |  |
| C0101PMP062C02 (VHH, Profile 2 Nanobody; also called C0101062C02) VHH: EVQLVESGGALVRPGGSLRLSCAASGFAFSAAYMSWVRQAPGRGLEWVSSISDDGSKTYYADSVKGRFTISRDNAKNTVYLQMNNLKPDDTAVYYCNTGYGATTTRPGRYWGQGTQVTVSS | 8.32 nM | 2.88 nM |  |  | 8.3 nM | 1.4 nM | 1.1 nM | 1 nM | 3.1 nM | 1.4 nM | 0.9 nM | 1.4 nM |
| 40E09-62C02 clone 69 (bispecific antibody) EVQLVESGGGSVQAGGSLRLSCAASGSTFSRYSMNWYRQAPGKQREFVAGISVGRITNYAVSVRGRFTISRDNAEGTGYLQMNSLKPEDTAVYYCNAGGLQGYWGLGTLVTVSSGGGGSGGGGSGGGGSGGGGSGGGGSGGGGSGGGGSEVQLVESGGALVRPGGSLRLSCAASGFAFSAAYMSWVRQAPGRGLEWVSSISDDGSKTYYADSVKGRFTISRDNAKNTVYLQMNNLKPDDTAVYYCNTGYGATTTRPGRYWGQGTLVTVSS |  | 1.12 nM |  |  |  |  |  |  |  |  |  |  |
| 62C02-40E09 clone 72 (bispecific antibody) EVQLVESGGALVRPGGSLRLSCAASGFAFSAAYMSWVRQAPGRGLEWVSSISDDGSKTYYADSVKGRFTISRDNAKNTVYLQMNNLKPDDTAVYYCNTGYGATTTRPGRYWGQGTLVTVSSGGGGSGGGGSGGGGSGGGGSGGGGSGGGGSGGGGSEVQLVESGGGSVQAGGSLRLSCAASGSTFSRYSMNWYRQAPGKQREFVAGISVGRITNYAVSVRGRFTISRDNAEGTGYLQMNSLKPEDTAVYYCNAGGLQGYWGLGTLVTVSS | 2.4 nM | 0.1 nM |  |  |  |  |  |  |  |  |  |  |

More lines, now with the values ahead:

| IC50, human fluorogenic collagen assay [1] | IC50, (adapted) rat fluorogenic peptide assay [2] | potency, human fluorogenic peptide assay [3] | IC50 [4] | IC50, human fluorogenic collagen assay [5] | IC50, human fluorogenic peptide assay [5] | IC50, rat fluorogenic peptide assay [6] | IC50, dog fluorogenic peptide assay [7] | IC50, bovine fluorogenic peptide assay [8] | IC50, cyno fluorogenic peptide assay [9] | IC50 [10] | IC50, human collagenolytic assay [5] | Binder |
| --- | --- | --- | --- | --- | --- | --- | --- | --- | --- | --- | --- | --- |
| 3.55 nM | 0.16 nM |  |  |  |  |  |  |  |  |  |  | 516G08-40E09 clone 76 (bispecific antibody) EVQLVESGGGLVQPGGSLRLSCAGSGSIFRINVMAWYRQAPGKQRELVAAITSGGTTNYADSVKGRFTISRDNSKNTVYLQMNSLRPEDTAVYYCYADIGWPYVLDYDFWGQGTLVTVSSGGGGSGGGGSGGGGSGGGGSGGGGSGGGGSGGGGSEVQLVESGGGSVQAGGSLRLSCAASGSTFSRYSMNWYRQAPGKQREFVAGISVGRITNYAVSVRGRFTISRDNAEGTGYLQMNSLKPEDTAVYYCNAGGLQGYWGLGTLVTVSS |
|  |  | 0.953 nM | 0.23 nM |  |  |  |  |  |  |  |  | C010100683 (bispecific antibody, MMP13-Aggrecan bispecific Nanobody construct; also called 62C02SO-114F08SO-114F08SO) EVQLVESGGGLVQPGGSLRLSCAASGFAFSAAYMSWVRQAPGKGLEWVSSISDDGSKTYYADSVKGRFTISRDNSKNTVYLQMNSLRPEDTAVYYCNTGYGATTTRPGRYWGQGTLVTVSSGGGGSGGGGSGGGGSGGGGSGGGGSGGGGSGGGGSEVQLVESGGGLVQPGGSLRLSCAASGSTFIINVVRWYRRAPGKQRELVATISSGGNANYVDSVRGRFTISRDNSKNTVYLQMNSLRPEDTAVYYCNVPTTHYGGVYYGPYWGQGTLVTVSSGGGGSGGGGSGGGGSGGGGSGGGGSGGGGSGGGGSEVQLVESGGGLVQPGGSLRLSCAASGSTFIINVVRWYRRAPGKQRELVATISSGGNANYVDSVRGRFTISRDNSKNTVYLQMNSLRPEDTAVYYCNVPTTHYGGVYYGPYWGQGTLVTVSS |
|  |  |  |  | 20.7 nM | 7.2 nM | 2.1 nM | 5.5 nM | 16.1 nM | 7 nM | 8.5 nM |  | C0101PMP521F02 (VHH, Profile 2 Nanobody) VHH: DVQLVESGGGLVQPGGSLRLSCVASGLTFSSYAMGWFRQAPGKEREFVAAISWSGGRTYYADSVKGRFTISRDNSKNTVYLQMNSLRPEDTAVYYCTAARGPGSVGPSEEYNYWGQGTLVTVSS |
|  |  |  |  | 17.9 nM | 10.3 nM | 80.6 nM | 39.1 nM | 20.1 nM | 7.1 nM | 7.9 nM |  | C0101PMP529G11 (VHH, Profile 2 Nanobody) VHH: DVQLVESGGGLVQPGGSLRLSCAASGSIFRINAMGWYRQAPGKQRELVAAIISGGTTYYADSVKGRFTISRDNSKNTVYLQMNSLRPEDTAVYYCYADIGWPYVLDYDFWGQGTLVTVSS |
| 4.06 nM | 0.13 nM |  |  |  |  |  |  |  |  |  |  | 517A01-40E09 clone 80 (bispecific antibody) EVQLVESGGGLVQPGGSLRLSCAASGRTFSSYAMGWFRQAPGKEREFVAAISWSGGSTYYADSVKGRFTISRDNSKNTVYLQMNSLRPEDTAVYYCTAALAVYGPNRYRYGPVGEYNYWGQGTLVTVSSGGGGSGGGGSGGGGSGGGGSGGGGSGGGGSGGGGSEVQLVESGGGSVQAGGSLRLSCAASGSTFSRYSMNWYRQAPGKQREFVAGISVGRITNYAVSVRGRFTISRDNAEGTGYLQMNSLKPEDTAVYYCNAGGLQGYWGLGTLVTVSS |
|  |  |  |  | 4.9 nM | 1.2 nM | 0.2 nM | 0.2 nM | 1.2 nM | 0.7 nM | 0.4 nM |  | C0101PMP529C12 (VHH, Profile 2 Nanobody; also called C0101529C12) VHH: DVQLVESGGGLVQPGGSLRLSCVASGSIFSINAMGWYRQAPGKQRELVAAISSGGSTYYADSVKGRFTISRDNSKNTVYLQMNSLRPEDTAVYYCNAAVDASRGLPYELYYYWGQGTLVTVSS |
|  |  |  |  | 27.5 nM | 13.4 nM | 7.8 nM | 17.3 nM | 27.7 nM | 9.5 nM | 9.3 nM |  | C0101PMP520B06 (VHH, Profile 2 Nanobody) VHH: DVQLVESGGGLVQPGGSLRLSCAASGRTFSSYAMGWFRQAPGKEREFVAAISWGGGSTYYSDSVKGRFTISRDNSKNTVYLQMNSLRPEDTAVYYCTAALGSTGSGSTPVPEYRYWGQGTLVTVSS |
